Data from patent publication US20210300992A1.

Experiments:
[1] = biological target: human leukemia inhibitory factor (LIF), soluble (human) (UniProt P15018); test: yeast surface display, flow cytometry; Score column of the table of sorted gp130 CBM variants (the filing gives 100 pM and 1 nM human LIF for the gp130 binding scores)
[2] = biological target: human leukemia inhibitory factor (LIF), soluble (human) (UniProt P15018); test: yeast surface display, flow cytometry; soluble human LIF titrated (0.001 to 100 nM), detected with a fluorescent antibody
[3] = biological target: human leukemia inhibitory factor (LIF), soluble (human) (UniProt P15018); test: yeast surface display, flow cytometry; score from summed fluorescence at 10 pM and 100 pM human LIF, normalized to wild-type and to expression

Chain of human leukemia inhibitory factor (LIF), soluble (human) (P15018 23-202 limits assumed): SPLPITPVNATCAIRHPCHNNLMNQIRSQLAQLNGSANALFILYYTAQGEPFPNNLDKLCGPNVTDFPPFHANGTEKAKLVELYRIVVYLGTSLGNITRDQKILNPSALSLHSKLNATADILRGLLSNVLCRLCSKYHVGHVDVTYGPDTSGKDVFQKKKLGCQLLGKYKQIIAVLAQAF

| Score (binding score) [1] | EC50 (read off the curve) [2] | Score (normalized binding score) [3] | Substance |
| --- | --- | --- | --- |
| 15.9 |  |  | ELDI (receptor) |
| 23.6 |  |  | ELRDSLE (receptor) |
|  | 0.4 nM | 7.71 | PDD (receptor) |
|  |  | 15.8 | PRDSAID (receptor) |
|  |  | 13.9 | PVVIDN (receptor) |
